# Biological target: HLA-A*02:01 (Homo sapiens, UniProt P04439, D140Y/D185E/D98H/E176V/E277Q/G131W/G231S/I119V/I121R/I166T/I218V/L300P/L318F/N151K/N90K/P208A/P217A/Q86G/Q94H/R138H/R169H/T345S)
# Test: MHC binding assay (UV-ligand exchange, beta2m ELISA, peptide exchange yield)
# Conditions: binding to HLA-A*02:01
# Description: Candidate peptides for T cell based therapies according to the present invention were further tested for their MHC binding capacity (affinity). The individual peptide-MHC complexes were produced by UV-ligand exchange, where a UV-sensitive peptide is cleaved upon UV-irradiation, and exchanged with the peptide of interest as analyzed. Only peptide candidates that can effectively bind and stabilize the peptide-receptive MHC molecules prevent dissociation of the MHC complexes. To determine the yield of the exchange reaction, an ELISA was performed based on the detection of the light chain ([…]) of stabilized MHC complexes. The assay was performed as generally described in Rodenko et al. (Rodenko et al., 2006).
# 96 well MAXISorp plates (NUNC) were coated over night with 2 ug/ml streptavidin in PBS at room temperature, washed 4× and blocked for 1 h at 37° C. in 2% BSA containing blocking buffer. Refolded HLA-A*02:01/MLA-001 monomers served as standards, covering the range of 15-500 ng/ml. Peptide-MHC monomers of the UV-exchange reaction were diluted 100 fold in blocking buffer. Samples were incubated for 1 h at 37° C., washed four times, incubated with 2 ug/ml HRP conjugated anti-β2m for 1 h at 37° C., washed again and detected with TMB solution that is stopped with […]. Absorption was measured at 450 nm. Candidate peptides that show a high exchange yield (preferably higher than 50%, most preferred higher than 75%) are generally preferred for a generation and production of antibodies or fragments thereof, and/or T cell receptors or fragments thereof, as they show sufficient avidity to the MHC molecules and prevent dissociation of the MHC complexes.
row,Substance,"Peptide exchange (MHC class I binding score, peptide exchange yield)"
1,95 (AILDAHIEV; listed as Homo sapiens) [compound 95],“++++” (≥75% = ++++)
2,96 (KLYSRLVYV; listed as Homo sapiens) [compound 96],“++” (≥20% = ++)
3,28 (ALTEIQEFI; listed as Homo sapiens) [compound 28],“++++” (≥75% = ++++)
4,33 (ALWEKNTHL; listed as Homo sapiens) [compound 33],“+++” (≥50 = +++)
5,74 (YLMGFLHAV; listed as Homo sapiens) [compound 74],“+++” (≥50 = +++)
6,48 (FLDASDPAL; listed as Homo sapiens) [compound 48],“++” (≥20% = ++)
7,46 (GLDDRYSLV; listed as Homo sapiens) [compound 46],“+++” (≥50 = +++)
8,8 (ALMLQGVDLL; listed as Homo sapiens) [compound 8],“+++” (≥50 = +++)
9,50 (TLMAEMHVV; listed as Homo sapiens) [compound 50],“+++” (≥50 = +++)
10,6 (FLAELPGSLSL; listed as Homo sapiens) [compound 6],“+++” (≥50 = +++)
11,84 (SMVEDITGLRL; listed as Homo sapiens) [compound 84],“+++” (≥50 = +++)
12,99 (KLLEVDLDTV; listed as Homo sapiens) [compound 99],“+++” (≥50 = +++)
13,63 (KLFSILSTV; listed as Homo sapiens) [compound 63],“++” (≥20% = ++)
14,80 (QVDEVVDIMRV; listed as Homo sapiens) [compound 80],“++” (≥20% = ++)
15,89 (SLIEYEFRV; listed as Homo sapiens) [compound 89],“+++” (≥50 = +++)
16,86 (KVFPGKISV; listed as Homo sapiens) [compound 86],“++” (≥20% = ++)
17,98 (AMNGKSFSV; listed as Homo sapiens) [compound 98],“++” (≥20% = ++)
18,30 (GLSSAYGGL; listed as Homo sapiens) [compound 30],“+” (≥10% = +)

row,Substance,"Peptide exchange (MHC class I binding score, peptide exchange yield)"
1,70 (MISELEVRL; listed as Homo sapiens) [compound 70],“+++” (≥50 = +++)
2,67 (SLNDLEKDVMLL; listed as Homo sapiens) [compound 67],“+++” (≥50 = +++)
3,73 (YLFDIAVSM; listed as Homo sapiens) [compound 73],“+++” (≥50 = +++)
4,51 (QVWEIQHTV; listed as Homo sapiens) [compound 51],“++” (≥20% = ++)
5,102 (KILVSLIEV; listed as Homo sapiens) [compound 102],“+++” (≥50 = +++)
6,61 (KLLKLFQGV; listed as Homo sapiens) [compound 61],“+++” (≥50 = +++)
7,34 (ILLEKSVSV; listed as Homo sapiens) [compound 34],“+++” (≥50 = +++)
8,75 (EMIENIQSV; listed as Homo sapiens) [compound 75],“++” (≥20% = ++)
9,36 (GLLESPSIFNFTA; listed as Homo sapiens) [compound 36],“+++” (≥50 = +++)
10,107 (ALLGGGPYML; listed as Homo sapiens) [compound 107],“+++” (≥50 = +++)
11,44 (SLESKLTSV; listed as Homo sapiens) [compound 44],“+++” (≥50 = +++)
12,88 (KLDIKVETV; listed as Homo sapiens) [compound 88],“++++” (≥75% = ++++)
13,66 (GLDDGPDFL; listed as Homo sapiens) [compound 66],“++” (≥20% = ++)
14,57 (NLLEKENYL; listed as Homo sapiens) [compound 57],“+++” (≥50 = +++)
15,68 (SILQFVHMV; listed as Homo sapiens) [compound 68],“+++” (≥50 = +++)
16,97 (ALWWGVVTV; listed as Homo sapiens) [compound 97],“++” (≥20% = ++)
17,16 (VLVDQSWVL; listed as Homo sapiens) [compound 16],“+++” (≥50 = +++)
18,40 (ALSNVIHKV; listed as Homo sapiens) [compound 40],“++” (≥20% = ++)

# Further lines, results first:
row,"Peptide exchange (MHC class I binding score, peptide exchange yield)",Substance
1,“++++” (≥75% = ++++),125 (KLGDFGLLVEL; listed as Homo sapiens) [compound 125]
2,“+++” (≥50 = +++),110 (LLGELPRLLLL; listed as Homo sapiens) [compound 110]
3,“++” (≥20% = ++),117 (TLQPVDNSTISL; listed as Homo sapiens) [compound 117]
4,“++++” (≥75% = ++++),164 (KMLDEILLQL; listed as Homo sapiens) [compound 164]
5,“+++” (≥50 = +++),140 (LLNEILEQV; listed as Homo sapiens) [compound 140]
6,“++” (≥20% = ++),116 (LVYQFVHPI; listed as Homo sapiens) [compound 116]
7,“+++” (≥50 = +++),122 (SLMGMVLKL; listed as Homo sapiens) [compound 122]
8,“+++” (≥50 = +++),115 (SLFDVSHML; listed as Homo sapiens) [compound 115]
9,“+++” (≥50 = +++),154 (KLPSETIFVGC; listed as Homo sapiens) [compound 154]
10,“+++” (≥50 = +++),166 (GLLEARGILGL; listed as Homo sapiens) [compound 166]
11,“+++” (≥50 = +++),177 (ALLQGAIESV; listed as Homo sapiens) [compound 177]
12,“++++” (≥75% = ++++),134 (GVAGGSILKGV; listed as Homo sapiens) [compound 134]
13,“++++” (≥75% = ++++),156 (SLMMTIINL; listed as Homo sapiens) [compound 156]
14,“++” (≥20% = ++),159 (VLVDDDGIKVV; listed as Homo sapiens) [compound 159]
15,“+++” (≥50 = +++),160 (KLLEFDQLQL; listed as Homo sapiens) [compound 160]
16,“+++” (≥50 = +++),151 (SAQGSDVSLTACKV; listed as Homo sapiens) [compound 151]
17,“++” (≥20% = ++),120 (VLYEGVDEV; listed as Homo sapiens) [compound 120]
18,“+++” (≥50 = +++),121 (SLAPNIISQL; listed as Homo sapiens) [compound 121]
19,“++++” (≥75% = ++++),182 (SLNKWIFTV; listed as Homo sapiens) [compound 182]
20,“+++” (≥50 = +++),189 (AISEVIGKITA; listed as Homo sapiens) [compound 189]
21,“++” (≥20% = ++),109 (ALDGDQMEL; listed as Homo sapiens) [compound 109]
22,“++” (≥20% = ++),130 (GLGGSQLIDTHL; listed as Homo sapiens) [compound 130]
23,“++++” (≥75% = ++++),174 (ILLDDNMQIRL; listed as Homo sapiens) [compound 174]
24,“+++” (≥50 = +++),163 (RLLHEVQEL; listed as Homo sapiens) [compound 163]
25,“+++” (≥50 = +++),167 (SVIDHIHLISV; listed as Homo sapiens) [compound 167]

# Reference: patent US10513547B2, “Peptides and combination of peptides and scaffolds thereof for use in immunotherapy against colorectal carcinoma (CRC) and other cancers” (Immatics Biotechnologies GmbH, priority 2015, dated 2019)
